Target: the molecule itself
Assay: cryo-EM structure

B1: GroES (natural protein, E. coli)
chain: MNIRPLHDRVIVKRKEVETKSAGGIVLTGSAAAKSTRGEVLAVGNGRILENGEVKPLDVKVGDIVIFNDGYGVKSEKIDNEEVLIMSESDILAIVEA
For B1, the “stoichiometry N” value was 7.

— paper PMC3695626 (Cell, 2013)
